According to patent publication US9580512:

Target: CD55 (UniProt P08174)
Assay: cell-based or functional assay

UniProt P08174, sequence (P08174 35-353 limits assumed): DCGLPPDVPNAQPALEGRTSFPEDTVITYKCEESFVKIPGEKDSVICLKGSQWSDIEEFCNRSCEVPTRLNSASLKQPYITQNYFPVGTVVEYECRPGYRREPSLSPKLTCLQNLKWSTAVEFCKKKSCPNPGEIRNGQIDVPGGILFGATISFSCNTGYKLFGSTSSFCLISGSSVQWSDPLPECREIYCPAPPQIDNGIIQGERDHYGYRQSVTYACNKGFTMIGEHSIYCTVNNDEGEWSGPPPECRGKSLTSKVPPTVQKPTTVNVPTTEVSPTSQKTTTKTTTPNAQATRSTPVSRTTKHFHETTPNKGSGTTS

Row | Substance | C3b deposition on 791T cells, mean linear fluorescence (MLF) | increase in C3b deposition [%]
1 | BRIC 216 (antibody) | 350 | –
2 | BRIC 220 (antibody) | 200 | –
3 | monoclonal antibody 791T/36 | 520 | 250
